From article PMC9352680, “A comprehensive thermodynamic model for RNA binding by the Saccharomyces cerevisiae Pumilio protein PUF4”
Numbering of substitutions follows the chain as printed. In names and notes the source's numbering stands.

T1: PUF4 RNA-binding domain (Saccharomyces cerevisiae, UniProt P25339 537-888)
T1 sequence: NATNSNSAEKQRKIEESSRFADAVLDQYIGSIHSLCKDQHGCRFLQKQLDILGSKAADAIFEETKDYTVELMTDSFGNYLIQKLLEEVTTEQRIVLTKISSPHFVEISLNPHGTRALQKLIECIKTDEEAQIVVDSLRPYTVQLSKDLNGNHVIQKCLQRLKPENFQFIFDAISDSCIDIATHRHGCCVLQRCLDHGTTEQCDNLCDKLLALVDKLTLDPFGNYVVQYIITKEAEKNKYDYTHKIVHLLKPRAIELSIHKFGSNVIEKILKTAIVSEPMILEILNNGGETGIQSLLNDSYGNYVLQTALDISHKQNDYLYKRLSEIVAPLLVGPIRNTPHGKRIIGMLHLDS

B1: Ib_S2_P3E.1_K3.1_C3.1_H3.1_[T1G]_[A4G]_A3.1_F3.1_T3.1 (ssRNA)
RNA: UUUGAUUAAUAUGAUAUCGUUCUUUCUGGUGUAUAUUCUUUCUCGAUAUCAUAUUAAUCUUU
B2: Ib_S2_P3E.1_K3.1_C3.1_H3.1_[G2C]_[T3C]_A3.1_F3.1_T3.1 (ssRNA)
RNA: B1 RNA with G28U, G29C, U30C, G31A
B3: Ib_S2_P3E.1_K3.1_C3.1_H3.1_[T1G]_[A4C]_A3.1_F3.1_T3.1 (ssRNA)
RNA: B1 RNA with G31C
B4: Ie_S2_P5E.1_K5.1_C5.1_H5.1_[+3CCC]_A5.1_F5.1_T5.1 (ssRNA)
RNA: UUUGAUUAAUAUGAUAUCGUUCUUUCUUGUCCCAUUAUUAUUCUUUCUCGAUAUCAUAUUAAUCUUU
B5: Ie_S2_P5E.1_K5.1_C5.1_H5.1_[+4TTC]_A5.1_F5.1_T5.1 (ssRNA)
RNA: B4 RNA with C31A, C32U, C33U, A34C
B6: Ie_S2_P5E.1_K5.1_C5.1_H5.1_A5.1_[+6TTC]_F5.1_T5.1 (ssRNA)
RNA: B4 RNA with C31A, C32U, C33U, A34U, U36C
B7: Ie_S2_P5E.1_K5.1_C5.1_H5.1_[+3TTC]_A5.1_F5.1_T5.1 (ssRNA)
RNA: B4 RNA with C31U, C32U
B8: Ie_S2_P5E.1_K5.1_C5.1_H5.1_A5.1_[+6TCT]_F5.1_T5.1 (ssRNA)
RNA: B4 RNA with C31A, C32U, C33U, A34U, U35C
B9: Ie_S2_P5E.1_K5.1_C5.1_H5.1_[+3CTC]_A5.1_F5.1_T5.1 (ssRNA)
RNA: B4 RNA with C32U
B10: Ie_S2_P5E.1_K5.1_C5.1_H5.1_[+4CTT]_A5.1_F5.1_T5.1 (ssRNA)
RNA: B4 RNA with C31A, C33U, A34U
B11: Ie_S2_P5E.1_K5.1_C5.1_H5.1_[+4TCC]_A5.1_F5.1_T5.1 (ssRNA)
RNA: B4 RNA with C31A, C32U, A34C
B12: Ie_S2_P5E.1_K5.1_C5.1_H5.1_A5.1_[+5TTT]_F5.1_T5.1 (ssRNA)
RNA: B4 RNA with C31A, C32U, C33U, A34U
B13: Ie_S2_P5E.1_K5.1_C5.1_H5.1_[+3TCC]_A5.1_F5.1_T5.1 (ssRNA)
RNA: B4 RNA with C31U
B14: Ie_S2_P5E.1_K5.1_C5.1_H5.1_[+2TCTC]_A5.1_F5.1_T5.1 (ssRNA)
RNA: UUUGAUUAAUAUGAUAUCGUUCUUUCUUGUCUCUAUUAUUAUUCUUUCUCGAUAUCAUAUUAAUCUUU
B15: Ie_S2_P5E.1_K5.1_C5.1_H5.1_A5.1_[+6CCTC]_F5.1_T5.1 (ssRNA)
RNA: B14 RNA with C31A, C33U, U34C, A35C, U37C
B16: Ie_S2_P5E.1_K5.1_C5.1_H5.1_[+2TTCC]_A5.1_F5.1_T5.1 (ssRNA)
RNA: B14 RNA with C31U, U32C
B17: Ie_S2_P5E.1_K5.1_C5.1_H5.1_[+3TCTC]_A5.1_F5.1_T5.1 (ssRNA)
RNA: B14 RNA with C31U, U32C, C33U, U34C
B18: Ie_S2_P5E.1_K5.1_C5.1_H5.1_[+2CCTC]_A5.1_F5.1_T5.1 (ssRNA)
RNA: B14 RNA with U30C
B19: Ie_S2_P5E.1_K5.1_C5.1_H5.1_[+3CCTC]_A5.1_F5.1_T5.1 (ssRNA)
RNA: B14 RNA with U32C, C33U, U34C
B20: Ie_S2_P5E.1_K5.1_C5.1_H5.1_A5.1_[+6TCTC]_F5.1_T5.1 (ssRNA)
RNA: B14 RNA with C31A, C33U, A35C, U37C
B21: Ie_S2_P5E.1_K5.1_C5.1_H5.1_A5.1_[+6CCCT]_F5.1_T5.1 (ssRNA)
RNA: B14 RNA with C31A, C33U, U34C, A35C, U36C
B22: Ie_S2_P5E.1_K5.1_C5.1_H5.1_[+2CCCT]_A5.1_F5.1_T5.1 (ssRNA)
RNA: B14 RNA with U30C, U32C, C33U
B23: Ie_S2_P5E.1_K5.1_C5.1_H5.1_[+2CTCTC]_A5.1_F5.1_T5.1 (ssRNA)
RNA: UUUGAUUAAUAUGAUAUCGUUCUUUCUUGCUCUCUAUUAUUAUUCUUUCUCGAUAUCAUAUUAAUCUUU
B24: Ie_S2_P5E.1_K5.1_C5.1_H5.1_[+4TCTCT]_A5.1_F5.1_T5.1 (ssRNA)
RNA: B23 RNA with C30U, U31A, C32U, U33C, C34U, U35C, A36U
B25: Ie_S2_P5E.1_K5.1_C5.1_H5.1_A5.1_[+5CTCTC]_F5.1_T5.1 (ssRNA)
RNA: B23 RNA with C30U, U31A, C32U, U33C, C34U, U35C, A36U, U37C
B26: Ie_S2_P5E.1_K5.1_C5.1_H5.1_[+4CTCTC]_A5.1_F5.1_T5.1 (ssRNA)
RNA: B23 RNA with C30U, U31A, A36C
B27: Ie_S2_P5E.1_K5.1_C5.1_H5.1_A5.1_[+5CCTCT]_F5.1_T5.1 (ssRNA)
RNA: B23 RNA with C30U, U31A, C32U, U33C, A36C
B28: Ie_S2_P5E.1_K5.1_C5.1_H5.1_[+2TTCCT]_A5.1_F5.1_T5.1 (ssRNA)
RNA: B23 RNA with C30U, U33C, C34U
B29: Ie_S2_P5E.1_K5.1_C5.1_H5.1_A5.1_[+5TCTCT]_F5.1_T5.1 (ssRNA)
RNA: B23 RNA with C30U, U31A, C32U, A36C
B30: Ie_S2_P5E.1_K5.1_C5.1_H5.1_A5.1_[+5CCCTT]_F5.1_T5.1 (ssRNA)
RNA: B23 RNA with C30U, U31A, C32U, U33C, U35C, A36U
B31: Ie_S2_P5E.1_K5.1_C5.1_H5.1_[+3TTCCT]_A5.1_F5.1_T5.1 (ssRNA)
RNA: B23 RNA with C30U, C32U, U33C
B32: Ie_S2_P5E.1_K5.1_C5.1_H5.1_[+2TCTCT]_A5.1_F5.1_T5.1 (ssRNA)
RNA: B23 RNA with C30U, U31C, C32U, U33C, C34U
B33: Ie_S2_P5E.1_K5.1_C5.1_H5.1_[+3CCTCT]_A5.1_F5.1_T5.1 (ssRNA)
RNA: B23 RNA with C30U, U31C
B34: Ie_S2_P5E.1_K5.1_C5.1_H5.1_[+4CCCTT]_A5.1_F5.1_T5.1 (ssRNA)
RNA: B23 RNA with C30U, U31A, U33C, A36U
B35: Ie_S2_P5E.1_K5.1_C5.1_H5.1_[+3CCCTT]_A5.1_F5.1_T5.1 (ssRNA)
RNA: B23 RNA with C30U, U31C, U33C, C34U
B36: Ie_S2_P5E.1_K5.1_C5.1_H5.1_[+2CCTCT]_A5.1_F5.1_T5.1 (ssRNA)
RNA: B23 RNA with U31C, C32U, U33C, C34U
B37: Ie_S2_P5E.1_K5.1_C5.1_H5.1_[+4TTCCT]_A5.1_F5.1_T5.1 (ssRNA)
RNA: B23 RNA with C30U, U31A, C32U, U35C, A36U
B38: Ie_S2_P5E.1_K5.1_C5.1_H5.1_A5.1_[+6CCTCT]_F5.1_T5.1 (ssRNA)
RNA: B23 RNA with C30U, U31A, C32U, U35C, A36U, U37C
B39: Ie_S2_P5E.1_K5.1_C5.1_H5.1_A5.1_[+5TTCCT]_F5.1_T5.1 (ssRNA)
RNA: B23 RNA with C30U, U31A, C32U, C34U, U35C, A36C
B40: Ie_S2_P5E.1_K5.1_C5.1_H5.1_A5.1_[+6TCTCT]_F5.1_T5.1 (ssRNA)
RNA: B23 RNA with C30U, U31A, C32U, C34U, U35C, A36U, U37C

molecular target: T1, PUF4 RNA-binding domain; assay: Mg; RNA-MaP; 20 mM Na-HEPES pH 7.4, 30 mM KOAc, 0.75 mM MgCl2, 0.1% Tween-20, 5% glycerol, 0.1 mg/mL BSA, 2 mM DTT; 25 C; 0.0125-409.6 nM protein; conditions: tags: N-His6-TEV cleaved; C-SNAP kept, Cy3B-labelled; label: tethered on chip by stalled RNA polymerase

First: B1
Second: B2
The Kd of the first is lower: 10.7 nM for the first, > 2300 nM for the second. The first binds more tightly here.

Going from B3 to B4, the Kd falls from > 2300 nM to 24.4 nM.

First: B5
Second: B6
The Kd of the first is 9.7-fold lower: 2.96 nM for the first, 28.6 nM for the second.

Compared with B7, B8 is 3.2-fold lower in Kd: 7.67 nM for the first, 2.42 nM for the second.

Going from B9 to B10, the Kd falls from 10.1 nM to 1.36 nM (7.4-fold). The second binds more tightly here.

First: B11
Second: B12
The Kd of the first is 1.6-fold higher: 2.6 nM for the first, 1.6 nM for the second.

First: B13
Second: B14
The Kd of the first is 3.1-fold lower: 11.4 nM for the first, 34.8 nM for the second. The first binds more tightly here.

Compared with B15, B16 is 2.6-fold lower in Kd: 99.6 nM for the first, 37.6 nM for the second. The second binds more tightly here.

Compared with B17, B18 is 20-fold higher in Kd: 56.2 nM for the first, 1100 nM for the second. The first binds more tightly here.

Compared with B19, B20 is 1.7-fold lower in Kd: 127 nM for the first, 75.2 nM for the second. The second binds more tightly here.

Going from B21 to B22, the Kd rises from 15.6 nM to 1170 nM (75-fold). The first binds more tightly here.

Compared with B23, B24 is 69-fold lower in Kd: 724 nM for the first, 10.5 nM for the second. The second binds more tightly here.

Going from B25 to B26, the Kd falls from 13.3 nM to 7.93 nM (1.7-fold).

First: B27
Second: B28
The Kd of the first is 2.1-fold lower: 12.8 nM for the first, 27.4 nM for the second. The first binds more tightly here.

Going from B29 to B30, the Kd rises from 9.67 nM to 16.3 nM (1.7-fold). The first binds more tightly here.

B31 and B32 are within 1.5-fold of each other in Kd: 46.3 nM for the first, 39.3 nM for the second.

Compared with B33, B34 is 5.5-fold lower in Kd: 35.3 nM for the first, 6.38 nM for the second.

Going from B35 to B36, the Kd rises from 54.6 nM to > 2300 nM. The first binds more tightly here.

B37 and B38 are within 1.5-fold of each other in Kd: 18.1 nM for the first, 20.8 nM for the second.

B39 and B40 are within 1.5-fold of each other in Kd: 13.2 nM for the first, 12.9 nM for the second.
